Values joined by “and” are separate entries in the source; they are usually repeats but may differ in a detail not shown here. Identical values can stand only once. Each block holds one molecule with its values, some of them ahead of it.
Assays:
[1] = target: human TIM-3-Fc fusion protein (human) (UniProt Q8TDQ0); test: other; competition with SULFO-TAG galectin-9, MSD
[2] = target: cynomolgus monkey TIM-3 expressed on 300.19 cells (cynomolgus monkey); test: flow cytometry on cells; 300.19 cells expressing human or cynomolgus TIM-3 incubated with titrated sabatolimab at 4°C for 4 hours; PE anti-hIgG secondary; Kd from best-fit binding curves (GraphPad Prism)
[3] = target: T1, human TIM-3 expressed on 300.19 cells (human, UniProt Q8TDQ0 22-301); test: as above; conditions: one partner purified
T1 construct: TIM-3, human, expressed on the surface of 300.19 cells; Also used for the functional rows on cells that express human TIM-3 (Raji hTIM-3 o.e., HNT-34, dendritic cells); source: 300.19 cells engineered to express human TIM-3 (lab of Gordon Freeman)

[4] = target: T2, recombinant human TIM-3/His (human, UniProt Q8TDQ0 22-202); test: SPR; Biacore; sabatolimab captured (~50 RU) by a human Fab capture antibody amine-coupled on a CM5 chip; TIM-3/His as analyte, 90 nM diluted 1:3, seven concentrations, HBS-EP+ buffer; 1:1 binding model, double reference subtraction; conditions: both partners purified
T2 construct: T-cell immunoglobulin domain and mucin domain-3 (TIM-3), human; Probably the extracellular domain (surmised); also called human recombinant TIM-3; source: bought: Sino Biological Inc

- IC50 [1]: 9.81 nM
Molecule: sabatolimab Fab'2

- Kd [2]: 0.9 nM
- Kd [3]: 0.5 ± 0.1 nM
- Kd [4]: 0.176 nM and 0.162 nM and 0.163 nM
B1: Sabatolimab, humanized anti-TIM-3 monoclonal antibody (hIgG4, S228P) (antibody, V domains shown)
VH: QVQLVQSGAEVKKPGSSVKVSCKASGYTFTSYNMHWVRQAPGQGLEWMGDIYPGNGDTSYNQKFKGRVTITADKSTSTVYMELSSLRSEDTAVYYCARVGGAFPMDYWGQGTTVTVSS
VL: AIQLTQSPSSLSASVGDRVTITCRASESVEYYGTSLMQWYQQKPGKAPKLLIYAASNVESGVPSRFSGSGSGTDFTLTISSLQPEDFATYFCQQSRKDPSTFGGGTKVEIKR
notes: whole heavy chain as printed; whole kappa light chain as printed; IgG4/kappa; humanized from the murine monoclonal antibody 22C1; also called MBG453; sabatolimab whole antibody; source: CHO cells, transiently produced (told of the ten selected humanized clones)

Reference: publication PMC9525012, “Characterization of sabatolimab, a novel immunotherapy with immuno-myeloid activity directed against TIM-3 receptor” (Immunotherapy Advances, 2022)
